Test results taken from US20260242839A1, “GLYCOSIDE PRODUCT BIOSYNTHESIS AND RECOVERY” (Manus Bio Inc., priority 2023, published 2026).

Each molecule was assayed on mogrol (assay: primary glycosylation at C3 and C24 hydroxyls of mogrol by cells expressing UGT enzymes). Conditions: mogrol fed; 37° C., 48 hrs; LCMS/MS.
Assay type: cell-based, E. coli
Procedure: Specifically, mogrol was fed to cells expressing various UGT enzymes. Reactions were incubated at 37° C. for 48 hrs. Products were quantified by LCMS/MS with authentic standards of each compound.

Molecule | C3 O-Glucosylation | C24 O-Glucosylation
SEQ ID NO: 80: SrUGT73E1, with optional His tag (Stevia rebaudiana) (protein, listed as Stevia rebaudiana, optional His tag) MAHHHHHHVGTGSNDDDDKSPDPNWASTSELVFIPSPGAGHLPPTVELAKLLLHRDQRLSVTIIVMNLWLGPKHNTEARPCVPSLRFVDIPCDESTMALISPNTFISAFVEHHKPRVRDIVRGIIESDSVRLAGFVLDMFCMPMSDVANEFGVPSYNYFTSGAATLGLMFHLQWKRDHEGYDATELKNSDTELSVPSYVNPVPAKVLPEVVLDKEGGSKMFLDLAERIRESKGIIVNSCQAIERHALEYLSSNNNGIPPVFPVGPILNLENKKDDAKTDEIMRWLNEQPESSVVFLCFGSMGSFNEKQVKEIAVAIERSGHRFLWSLRRPTPKEKIEFPKEYENLEEVLPEGFLKRTSSIGKVIGWAPQMAVLSHPSVGGFVSHCGWNSTLESMWCGVPMAAWPLYAEQTLNAFLLVVELGLAAEIRMDYRTDTKAGYDGGMEVTVEEIEDGIRKLMSDGEIRNKVKDVKEKSRAAVVEGGSSYASIGKFIEHVSNVTI | No | Yes
SEQ ID NO: 46: CmaUGT1 (Cucurbita maxima) (protein, listed as Cucurbita maxima) MELSHTHHVLLFPFPAKGHIKPFFSLAQLLCNAGLRVTFLNTDHHHRRIHDLNRLAAQLPTLHFDSVSDGLPPDEPRNVFDGKLYESIRQVTSSLFRELLVSYNNGTSSGRPPITCVITDVMFRFPIDIAEELGIPVFTFSTFSARFLFLIFWIPKLLEDGQLRYPEQELHGVPGAEGLIRWKDLPGFWSVEDVADWDPMNFVNQTLATSRSSGLILNTFDELEAPFLTSLSKIYKKIYSLGPINSLLKNFQSQPQYNLWKEDHSCMAWLDSQPRKSVVFVSFGSVVKLTSRQLMEFWNGLVNSGMPFLLVLRSDVIEAGEEVVREIMERKAEGRWVIVSWAPQEEVLAHDAVGGFLTHSGWNSTLESLAAGVPMISWPQIGDQTSNSTWISKVWRIGLQLEDGFDSSTIETMVRSIMDQTMEKTVAELAERAKNRASKNGTSYRNFQTLIQDITNIIETHI | Yes | No

The molecules below were run on steviol glycoside (assay: steviol glycoside bioconversion with complemented sucrose synthases in chassis strain). Conditions: chassis strain with UGT SEQ ID NOS: 15 and 25, stevia leaf extract, glucose fed, 37° C., 48 hr, FIG. 3.
Assay type: cell-based, E. coli
Text: Strains were created that expressed candidate sucrose synthase enzymes, which may improve UDP-glucose availability when fed sucrose. Expression of a sucrose synthase enables splitting of sucrose into fructose and glucose. Glucose can be funneled towards UDP-glucose biosynthesis. […] Genes were complemented on plasmid. Fold improvement is with respect to total steviol glycoside conversion. Stevia leaf extract, sucrose, and glucose were fed to the bioconversion strains. Bioconversion took place at 37° C. for 48 hr. Data were quantified by reverse phase LC DAD to quantify conversion of steviol glycosides.

Molecule | improvement of total steviol glycoside conversion by sucrose synthase
SEQ ID NO: 2: sucrose synthase, Solanum tuberosum (StSus2) | dramatic improvements in glycosylation
SEQ ID NO: 3: sucrose synthase, Solanum tuberosum (StSus2_S11E) | dramatic improvements in glycosylation
SEQ ID NO: 6: sucrose synthase, Arabidopsis thaliana (AtSus1) | dramatic improvements in glycosylation
SEQ ID NO: 7: sucrose synthase, Arabidopsis thaliana (AtSus3) | dramatic improvements in glycosylation
SEQ ID NO: 8: sucrose synthase, Vigna radiate (VrSS1) | dramatic improvements in glycosylation
SEQ ID NO: 9: sucrose synthase, Vigna radiate (VrSS1_S11E) | dramatic improvements in glycosylation

Each molecule was assayed on steviol glycoside (assay: steviol glycoside bioconversion with overexpressed genes complemented on plasmid). Conditions: chassis strain with UGT SEQ ID NOS: 14 and 24; stevia leaf extract and glucose fed; 37° C., 48 hr; FIG. 2.
Assay type: cell-based, E. coli
Procedure: Other bacterial genes were overexpressed, and bioconversion tested as compared to the chassis strain expressing UGT enzymes of SEQ ID NOS: 14 and 24. […] Fold improvement is with respect to total steviol glycoside conversion. Stevia leaf extract and glucose were fed to the bioconversion strains. Bioconversion took place at 37° C. for 48 hr. Data were quantified by reverse phase LC DAD to quantify conversion of steviol glycosides.

Molecule | improvement of total steviol glycoside conversion by gene complementation
adk: E. coli adk (adenylate kinase), complemented on plasmid | improved overall glycosylation
cmk: E. coli cmk (cytidylate kinase), complemented on plasmid (protein, listed as Escherichia coli) MTAIAPVITIDGPSGAGKGTLCKAMAEALQWHLLDSGAIYRVLALAALHHHVDVASEDALVPLASHLDVRFVSTNGNLEVILEGEDVSGEIRTQEVANAASQVAAFPRVREALLRRQRAFRELPGLIADGRDMGTVVFPDAPVKIFLDASSEERAHRRMLQLQEKGFSVNFERLLAEIKERDDRDRNRAVAPLVPAADALVLDSTTLSIEQVIEKALQYARQKLALA | improved overall glycosylation
galU: E. coli galU (UTP-glucose-1-phosphate uridylyltransferase), complemented on plasmid (protein, listed as Escherichia coli) MAAINTKVKKAVIPVAGLGTRMLPATKAIPKEMLPLVDKPLIQYVVNECIAAGITEIVLVTHSSKNSIENHFDTSFELEAMLEKRVKRQLLDEVQSICPPHVTIMQVRQGLAKGLGHAVLCAHPVVGDEPVAVILPDVILDEYESDLSQDNLAEMIRRFDETGHSQIMVEPVADVTAYGVVDCKGVELAPGESVPMVGVVEKPKADVAPSNLAIVGRYVLSADIWPLLAKTPPGAGDEIQLTDAIDMLIEKETVEAYHMKGKSHDCGNKLGYMQAFVEYGIRHNTLGTEFKAWLEEEMGIKK | improved overall glycosylation
ndk: E. coli ndk (nucleoside diphosphate kinase), complemented on plasmid (protein, listed as Escherichia coli) MAIERTFSIIKPNAVAKNVIGNIFARFEAAGFKIVGTKMLHLTVEQARGFYAEHDGKPFFDGLVEFMTSGPIVVSVLEGENAVQRHRDLLGATNPANALAGTLRADYADSLTENGTHGSDSVESAAREIAYFFGEGEVCPRTR | improved overall glycosylation
ugpA: Bifidobacterium bifidum ugpA, complemented on plasmid (protein, listed as Bifidobacterium bifidum) MAFAEDLKRTEKMTVDDVFEQSAQKMREQGMSEIAISQFRHAYHVWASEKESAWIREDTVEPLHGVRSFHDVYKTIDHDKAVHAFAKTAFLKLNGGLGTSMGLQCAKSLLPVRRHKARQMRFLDIILGQVLTARTRLNVPLPVTFMNSFRTSDDTMKALRHQRKFKQTDIPLEIIQHQEPKIDAATGAPASWPANPDLEWCPPGHGDLFSTLRESGLLDTLLEHGFEYLFISNSDNLGARPSRTLAQYFEDTGAPFMVEVANRTYADRKGGHIVRDTATGRLILREMSQVHPDDKDAAQDIAKHPYFNTNNIWVRIDVLRDMLAEHDGVLPLPVIINNKTVDPIDPQSPAVVQLETAMGAAIGLFEGAICVQVDRMRFLPVKTTNDLFIMRSDRFHLTDSYEMEDGNYIFPNVDLDPRYYKNIEDFNERFPYNVPSLAAANSVSIKGDWTFGRDVIMFADARLEDRNEPSYVPNGEYVGPMGIEPGDWV | improved overall glycosylation
ycjU: E. coli ycjU (β-phosphoglucomutase), complemented on plasmid (protein, listed as Escherichia coli) MKLQGVIFDLDGVITDTAHLHFQAWQQIAAEIGISIDAQFNESLKGISRDESLRRILQHGGKEGDFNSQERAQLAYRKNLLYVHSLRELTVNAVLPGIRSLLADLRAQQISVGLASVSLNAPTILAALELREFFTFCADASQLKNSKPDPEIFLAACAGLGVPPQACIGIEDAQAGIDAINASGMRSVGIGAGLTGAQLLLPSTESLTWPRLSAFWQNV | improved overall glycosylation
pgm: E. coli pgm (phosphoglucomutase), complemented on plasmid (protein, listed as Escherichia coli) MAIHNRAGQPAQQSDLINVAQLTAQYYVLKPEAGNAEHAVKFGTSGHRGSAARHSFNEPHILAIAQAIAEERAKNGITGPCYVGKDTHALSEPAFISVLEVLAANGVDVIVQENNGFTPTPAVSNAILVHNKKGGPLADGIVITPSHNPPEDGGIKYNPPNGGPADTNVTKVVEDRANALLADGLKGVKRISLDEAMASGHVKEQDLVQPFVEGLADIVDMAAIQKAGLTLGVDPLGGSGIEYWKRIGEYYNLNLTIVNDQVDQTFRFMHLDKDGAIRMDCSSECAMAGLLALRDKFDLAFANDPDYDRHGIVTPAGLMNPNHYLAVAINYLFQHRPQWGKDVAVGKTLVSSAMIDRVVNDLGRKLVEVPVGFKWFVDGLFDGSFGFGGEESAGASFLRFDGTPWSTDKDGIIMCLLAAEITAVTGKNPQEHYNELAKRFGAPSYNRLQAAATSAQKAALSKLSPEMVSASTLAGDPITARLTAAPGNGASIGGLKVMTDNGWFAARPSGTEDAYKIYCESFLGEEHRKQIEKEAVEIVSEVLKNA | improved overall glycosylation
pgm-galU: pgm and galU (SEQ ID NOS: 92 and 93) complemented together on plasmid (protein, listed as Escherichia coli) chain 1: MAIHNRAGQPAQQSDLINVAQLTAQYYVLKPEAGNAEHAVKFGTSGHRGSAARHSFNEPHILAIAQAIAEERAKNGITGPCYVGKDTHALSEPAFISVLEVLAANGVDVIVQENNGFTPTPAVSNAILVHNKKGGPLADGIVITPSHNPPEDGGIKYNPPNGGPADTNVTKVVEDRANALLADGLKGVKRISLDEAMASGHVKEQDLVQPFVEGLADIVDMAAIQKAGLTLGVDPLGGSGIEYWKRIGEYYNLNLTIVNDQVDQTFRFMHLDKDGAIRMDCSSECAMAGLLALRDKFDLAFANDPDYDRHGIVTPAGLMNPNHYLAVAINYLFQHRPQWGKDVAVGKTLVSSAMIDRVVNDLGRKLVEVPVGFKWFVDGLFDGSFGFGGEESAGASFLRFDGTPWSTDKDGIIMCLLAAEITAVTGKNPQEHYNELAKRFGAPSYNRLQAAATSAQKAALSKLSPEMVSASTLAGDPITARLTAAPGNGASIGGLKVMTDNGWFAARPSGTEDAYKIYCESFLGEEHRKQIEKEAVEIVSEVLKNA chain 2: MAAINTKVKKAVIPVAGLGTRMLPATKAIPKEMLPLVDKPLIQYVVNECIAAGITEIVLVTHSSKNSIENHFDTSFELEAMLEKRVKRQLLDEVQSICPPHVTIMQVRQGLAKGLGHAVLCAHPVVGDEPVAVILPDVILDEYESDLSQDNLAEMIRRFDETGHSQIMVEPVADVTAYGVVDCKGVELAPGESVPMVGVVEKPKADVAPSNLAIVGRYVLSADIWPLLAKTPPGAGDEIQLTDAIDMLIEKETVEAYHMKGKSHDCGNKLGYMQAFVEYGIRHNTLGTEFKAWLEEEMGIKK | improved overall glycosylation
